“And” between values parts separate entries of the source, which are not always exact repeats. Identical values can stand only once.
Experiments:
Conditions in all cases: remark: other sources report otherwise
[1] = biological target: T1, human arachidonate 12S-Lipoxygenase (12-LOX) (human), P18054; assay: SEC
T1 chain: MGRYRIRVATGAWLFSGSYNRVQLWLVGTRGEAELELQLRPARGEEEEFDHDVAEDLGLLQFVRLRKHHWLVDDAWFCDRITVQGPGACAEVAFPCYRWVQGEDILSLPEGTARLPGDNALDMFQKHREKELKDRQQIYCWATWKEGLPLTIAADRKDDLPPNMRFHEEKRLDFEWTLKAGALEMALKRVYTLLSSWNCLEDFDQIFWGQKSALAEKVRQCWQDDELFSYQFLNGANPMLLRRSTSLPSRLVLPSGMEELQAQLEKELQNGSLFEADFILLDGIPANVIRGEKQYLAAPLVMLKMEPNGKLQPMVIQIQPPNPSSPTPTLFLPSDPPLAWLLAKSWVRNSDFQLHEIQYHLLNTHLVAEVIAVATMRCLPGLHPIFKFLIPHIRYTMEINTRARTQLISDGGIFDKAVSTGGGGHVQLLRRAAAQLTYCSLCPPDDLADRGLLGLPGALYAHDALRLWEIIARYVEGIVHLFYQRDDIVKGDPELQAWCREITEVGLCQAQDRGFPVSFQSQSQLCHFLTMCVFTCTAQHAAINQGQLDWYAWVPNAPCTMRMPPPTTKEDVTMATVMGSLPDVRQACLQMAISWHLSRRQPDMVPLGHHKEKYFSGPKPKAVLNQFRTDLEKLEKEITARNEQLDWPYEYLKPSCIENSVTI

[2] = biological target: T1, human arachidonate 12S-Lipoxygenase …; assay: cryo-EM structure
[3] = biological target: T1, human arachidonate 12S-Lipoxygenase …; assay: cryo-EM structure
[4] = biological target: T1, human arachidonate 12S-Lipoxygenase …; assay: cryo-EM structure

- stoichiometry N [1]: 2 and 4
- stoichiometry N [2]: 4
- stoichiometry N [3]: 2 and 4 and 6
- stoichiometry N [4]: 4
B1: human arachidonate 12S-Lipoxygenase (12-LOX), P18054 1-663 (enzyme)
chain: MGRYRIRVATGAWLFSGSYNRVQLWLVGTRGEAELELQLRPARGEEEEFDHDVAEDLGLLQFVRLRKHHWLVDDAWFCDRITVQGPGACAEVAFPCYRWVQGEDILSLPEGTARLPGDNALDMFQKHREKELKDRQQIYCWATWKEGLPLTIAADRKDDLPPNMRFHEEKRLDFEWTLKAGALEMALKRVYTLLSSWNCLEDFDQIFWGQKSALAEKVRQCWQDDELFSYQFLNGANPMLLRRSTSLPSRLVLPSGMEELQAQLEKELQNGSLFEADFILLDGIPANVIRGEKQYLAAPLVMLKMEPNGKLQPMVIQIQPPNPSSPTPTLFLPSDPPLAWLLAKSWVRNSDFQLHEIQYHLLNTHLVAEVIAVATMRCLPGLHPIFKFLIPHIRYTMEINTRARTQLISDGGIFDKAVSTGGGGHVQLLRRAAAQLTYCSLCPPDDLADRGLLGLPGALYAHDALRLWEIIARYVEGIVHLFYQRDDIVKGDPELQAWCREITEVGLCQAQDRGFPVSFQSQSQLCHFLTMCVFTCTAQHAAINQGQLDWYAWVPNAPCTMRMPPPTTKEDVTMATVMGSLPDVRQACLQMAISWHLSRRQPDMVPLGHHKEKYFSGPKPKAVLNQFRTDLEKLEKEITARNEQLDWPYEYLKPSCIENSVTI
